Laboratory results reported in the supplement of paper PMC9112550, “Optimization of the antimicrobial peptide Bac7 by deep mutational scanning” (BMC Biology, 2022).

Tested on: Escherichia coli TOP10
Experiment: shrunken log2 fold change of peptide-encoding DNA abundance (4.5 h post-induction vs induction); higher = less antimicrobial activity (less host growth inhibition)
Conditions: time post-induction: 4.5 h; library: site-saturation at positions 5, 18, 19, 20
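Note: peptides expressed intracellularly from a pBAD plasmid library in pooled LB shake-flask culture, induced with 0.3% L-arabinose, DNA abundance read by NGS, three biological replicates, DESeq2 with apeglm shrinkage.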

| Sequence | shrunken log2 fold change |
| --- | --- |
| RRIRWRPPRLPRPRPRPQQWPRP | 0.333 |
| RRIRLRPPRLPRPRPRPNWRPRP | 0.292 |
| RRIRWRPPRLPRPRPRPLIEPRP | 0.00804 |
| RRIRIRPPRLPRPRPRPWRFPRP | -0.105 |
| RRIRCRPPRLPRPRPRPQLRPRP | -0.127 |
| RRIRVRPPRLPRPRPRPNRVPRP | 0.0523 |
| RRIRGRPPRLPRPRPRPIHKPRP | -0.16 |
| RRIRFRPPRLPRPRPRPKLPPRP | 0.404 |
| RRIRYRPPRLPRPRPRPSNLPRP | -0.729 |
| RRIRNRPPRLPRPRPRPDGIPRP | 0.0081 |
| RRIRDRPPRLPRPRPRPNRMPRP | -0.196 |
| RRIRPRPPRLPRPRPRPQCCPRP | 0.0723 |
| RRIRVRPPRLPRPRPRPAYDPRP | -0.565 |
| RRIRIRPPRLPRPRPRPEKPPRP | -0.0144 |
| RRIRYRPPRLPRPRPRPICCPRP | -0.137 |
| RRIRGRPPRLPRPRPRPYMKPRP | -0.493 |
| RRIRDRPPRLPRPRPRPQCDPRP | -0.0921 |
| RRIRLRPPRLPRPRPRPRFMPRP | -0.244 |
| RRIRWRPPRLPRPRPRPSGVPRP | -0.158 |
| RRIRPRPPRLPRPRPRPPRSPRP | 0.518 |
| RRIRQRPPRLPRPRPRPRYCPRP | -0.143 |
| RRIRWRPPRLPRPRPRPQKGPRP | -0.214 |
| RRIRLRPPRLPRPRPRPTPAPRP | 0.306 |
| RRIRTRPPRLPRPRPRPNKNPRP | -0.156 |
| RRIRDRPPRLPRPRPRPWIQPRP | -0.653 |

| Sequence | shrunken log2 fold change |
| --- | --- |
| RRIRFRPPRLPRPRPRPTTVPRP | -0.132 |
| RRIRHRPPRLPRPRPRPRSWPRP | 0.129 |
| RRIRGRPPRLPRPRPRPESGPRP | 1.12 |
| RRIRTRPPRLPRPRPRPMMTPRP | 0.0356 |
| RRIRERPPRLPRPRPRPLFYPRP | -0.513 |
| RRIRMRPPRLPRPRPRPCMWPRP | 0.138 |
| RRIRDRPPRLPRPRPRPMMNPRP | -0.00862 |
| RRIRHRPPRLPRPRPRPGYNPRP | -0.418 |
| RRIRFRPPRLPRPRPRPQVRPRP | 0.305 |
| RRIRRRPPRLPRPRPRPGDWPRP | 0.465 |
| RRIRPRPPRLPRPRPRPYYVPRP | -1.25 |
| RRIRRRPPRLPRPRPRPETHPRP | 0.697 |
| RRIRIRPPRLPRPRPRPGNAPRP | -0.0762 |
| RRIRLRPPRLPRPRPRPTMPPRP | -0.0783 |
| RRIRNRPPRLPRPRPRPAMMPRP | 0.0394 |
| RRIRCRPPRLPRPRPRPVHMPRP | 0.0385 |
| RRIRTRPPRLPRPRPRPGVSPRP | -0.221 |
| RRIRTRPPRLPRPRPRPYGAPRP | -0.0628 |
| RRIRQRPPRLPRPRPRPPWEPRP | -0.0075 |
| RRIRERPPRLPRPRPRPHGSPRP | -0.15 |
| RRIRVRPPRLPRPRPRPMAFPRP | -0.00965 |
| RRIRERPPRLPRPRPRPRQGPRP | 0.235 |
| RRIRLRPPRLPRPRPRPNGHPRP | -0.0365 |
| RRIRWRPPRLPRPRPRPCYWPRP | -0.201 |
| RRIRSRPPRLPRPRPRPDAEPRP | 0.984 |

| Sequence | shrunken log2 fold change |
| --- | --- |
| RRIRDRPPRLPRPRPRPWDCPRP | -0.103 |
| RRIRCRPPRLPRPRPRPPWAPRP | 0.317 |
| RRIRMRPPRLPRPRPRPTWFPRP | 0.448 |
| RRIRERPPRLPRPRPRPLNTPRP | -1.11 |
| RRIRCRPPRLPRPRPRPGNWPRP | 0.0422 |
| RRIRFRPPRLPRPRPRPGSNPRP | -0.624 |
| RRIRQRPPRLPRPRPRPSLQPRP | -0.154 |
| RRIRLRPPRLPRPRPRPCPKPRP | 0.136 |
| RRIRMRPPRLPRPRPRPHIAPRP | 0.13 |
| RRIRTRPPRLPRPRPRPCDYPRP | -0.0715 |
| RRIRYRPPRLPRPRPRPPGAPRP | 0.397 |
| RRIRERPPRLPRPRPRPCKFPRP | -0.214 |
| RRIRDRPPRLPRPRPRPLSPPRP | -0.0511 |
| RRIRARPPRLPRPRPRPWNPPRP | 0.126 |
| RRIRNRPPRLPRPRPRPENLPRP | 0.00699 |
| RRIRPRPPRLPRPRPRPTFTPRP | 0.101 |
| RRIRPRPPRLPRPRPRPWTWPRP | -0.0128 |
| RRIRSRPPRLPRPRPRPQNQPRP | -0.455 |
| RRIRTRPPRLPRPRPRPFKKPRP | -0.102 |
| RRIRHRPPRLPRPRPRPHRGPRP | -0.0108 |
| RRIRGRPPRLPRPRPRPDYNPRP | -0.12 |
| RRIRYRPPRLPRPRPRPCWFPRP | -0.0378 |
| RRIRLRPPRLPRPRPRPQLRPRP | -0.00627 |
| RRIRFRPPRLPRPRPRPMPDPRP | -0.0671 |
| RRIRERPPRLPRPRPRPAGCPRP | -0.0935 |

| Sequence | shrunken log2 fold change |
| --- | --- |
| RRIRNRPPRLPRPRPRPFSEPRP | -0.0347 |
| RRIRIRPPRLPRPRPRPQGMPRP | -0.501 |
| RRIRMRPPRLPRPRPRPLVPPRP | 0.208 |
| RRIRERPPRLPRPRPRPKQEPRP | -0.127 |
| RRIRQRPPRLPRPRPRPVTNPRP | 0.0368 |
| RRIRLRPPRLPRPRPRPDMKPRP | -0.286 |
| RRIRYRPPRLPRPRPRPMHQPRP | -0.0734 |
| RRIRYRPPRLPRPRPRPHTSPRP | -1.04 |
| RRIRVRPPRLPRPRPRPFVPPRP | -0.0478 |
| RRIRCRPPRLPRPRPRPDFCPRP | -0.228 |
| RRIRGRPPRLPRPRPRPSTVPRP | 0.164 |
| RRIRYRPPRLPRPRPRPVTWPRP | -0.207 |
| RRIRKRPPRLPRPRPRPNFVPRP | 0.309 |
| RRIRMRPPRLPRPRPRPMQFPRP | 0.167 |
| RRIRPRPPRLPRPRPRPWSVPRP | -0.101 |
| RRIRQRPPRLPRPRPRPKKRPRP | 0.107 |
| RRIRARPPRLPRPRPRPDMIPRP | -0.0395 |
| RRIRERPPRLPRPRPRPWDCPRP | -0.0136 |
| RRIRNRPPRLPRPRPRPFLYPRP | -0.468 |
| RRIRERPPRLPRPRPRPPDGPRP | 0.0068 |
| RRIRFRPPRLPRPRPRPAMDPRP | -0.0614 |
| RRIRPRPPRLPRPRPRPNHEPRP | -0.419 |
| RRIRYRPPRLPRPRPRPFVTPRP | -0.156 |
| RRIRHRPPRLPRPRPRPEHRPRP | -0.137 |
| RRIRRRPPRLPRPRPRPQFQPRP | 0.00665 |

| Sequence | shrunken log2 fold change |
| --- | --- |
| RRIRPRPPRLPRPRPRPPNAPRP | 0.435 |
| RRIRGRPPRLPRPRPRPQDKPRP | 0.0315 |
| RRIRTRPPRLPRPRPRPSPPPRP | -0.0898 |
| RRIRKRPPRLPRPRPRPPCMPRP | -0.0208 |
| RRIRQRPPRLPRPRPRPHECPRP | -0.0866 |
| RRIRNRPPRLPRPRPRPASQPRP | 0.545 |
| RRIRERPPRLPRPRPRPVMSPRP | 0.0484 |
| RRIRRRPPRLPRPRPRPVWWPRP | 0.703 |
| RRIRRRPPRLPRPRPRPLQEPRP | 0.019 |
| RRIRFRPPRLPRPRPRPADTPRP | -0.109 |
| RRIRTRPPRLPRPRPRPYRRPRP | -0.0138 |
| RRIRCRPPRLPRPRPRPMYWPRP | 0.0082 |
| RRIRGRPPRLPRPRPRPWLEPRP | 0.303 |
| RRIRKRPPRLPRPRPRPEGAPRP | 1.54 |
| RRIRERPPRLPRPRPRPRYSPRP | -0.182 |
| RRIRRRPPRLPRPRPRPELWPRP | 0.518 |
| RRIRPRPPRLPRPRPRPAQGPRP | 0.156 |
| RRIRQRPPRLPRPRPRPTFMPRP | -0.552 |
| RRIRARPPRLPRPRPRPDWAPRP | 0.524 |
| RRIRIRPPRLPRPRPRPCKCPRP | -0.0887 |
| RRIRARPPRLPRPRPRPKNHPRP | -0.125 |
| RRIRPRPPRLPRPRPRPTVEPRP | -0.104 |
| RRIRPRPPRLPRPRPRPIWHPRP | -0.0776 |
| RRIRKRPPRLPRPRPRPYWRPRP | -0.426 |
| RRIRFRPPRLPRPRPRPLHLPRP | -0.166 |

| Sequence | shrunken log2 fold change |
| --- | --- |
| RRIRGRPPRLPRPRPRPRSRPRP | 0.368 |
| RRIRKRPPRLPRPRPRPFMKPRP | -0.157 |
| RRIRRRPPRLPRPRPRPFEGPRP | 0.0216 |
| RRIRPRPPRLPRPRPRPGWMPRP | -0.0745 |
| RRIRLRPPRLPRPRPRPMNYPRP | -0.0583 |
| RRIRGRPPRLPRPRPRPPSYPRP | 0.326 |
| RRIRERPPRLPRPRPRPYYTPRP | -0.116 |
| RRIRHRPPRLPRPRPRPNLPPRP | -0.57 |
| RRIRKRPPRLPRPRPRPANRPRP | 0.167 |
| RRIRQRPPRLPRPRPRPYAHPRP | -0.249 |
| RRIRTRPPRLPRPRPRPYIIPRP | -0.59 |
| RRIRTRPPRLPRPRPRPAPKPRP | 0.371 |
| RRIRDRPPRLPRPRPRPWMTPRP | -0.29 |
| RRIRHRPPRLPRPRPRPTLAPRP | 0.382 |
| RRIRDRPPRLPRPRPRPEWWPRP | -0.00197 |
| RRIRRRPPRLPRPRPRPCPKPRP | -0.0745 |
| RRIRNRPPRLPRPRPRPWIHPRP | 0.0731 |
| RRIRDRPPRLPRPRPRPMVRPRP | 0.152 |
| RRIRSRPPRLPRPRPRPQFEPRP | 0.189 |
| RRIRQRPPRLPRPRPRPAKFPRP | -0.103 |
| RRIRIRPPRLPRPRPRPGDVPRP | -0.227 |
| RRIRSRPPRLPRPRPRPLCCPRP | 0.473 |
| RRIRGRPPRLPRPRPRPVQQPRP | 0.515 |
| RRIRRRPPRLPRPRPRPVDYPRP | -0.0118 |
| RRIRRRPPRLPRPRPRPAKTPRP | 0.408 |
